This series concerns the molecule itself. The experiment in a line: SEC + other: SDS-PAGE under non-reducing conditions; analytical gel filtration chromatography and SDS-PAGE without DTT or beta-mercaptoethanol; apparent molecular mass ca. 60,000; dimer. (In general: SEC sorts molecules by how far they enter the pores of the column.)

The text below walks through data of paper PMC3520743, “Bacillus cereus Fnr binds a [4Fe-4S] cluster and forms a ternary complex with ResD and PlcR” (BMC Microbiology, 2012).

B1: Bacillus cereus Fnr, recombinant tag-less apo-form (natural protein, Bacillus cereus F4430/73, UniProt A4GFD9 1-230, looked up)
chain: MANSMTLSQDLKELLASVEYKMQIKKGSFIFQEGMEATELYIIHSGKVQISKLSADGQELTLRICSAYDIIGELTLFTDNAKYLLNSKCLEDVEVGVIKREALEKELLQKPALVFEFMKWISEHLRRMQTKFRDLVLHGKKGALYSTLIRMTNSYGILKENGILIDLPLTNQELANFCATSRESVNRMLNELKKQGTISIHKGKITIHDLQFLKCEIACEDCSASVCSID
notes: also called apoFnr; tag-less Fnr; source: E. coli BL21 CodonPlus(DE3)-RIL (pET101fnr), aerobically grown, purified (DEAE-cellulose, hydroxyapatite, Superdex 200)
One may read the stoichiometry N as a count of units in the complex or per binding partner. As to B1, the “stoichiometry N” value was found to be 2.
